Columns and labels:
[1] = target: TLR5 on HCT116 cells (UniProt O60602); assay: cell-based or functional assay
[2] = target: T1, Human 4Ig-B7-H3 extracellular domain (human, UniProt Q5ZPR3 29-466); assay: biolayer interferometry (Octet), comparison of Kd values of Table 6
T1 construct: extracellular domain
T1 sequence (looked up): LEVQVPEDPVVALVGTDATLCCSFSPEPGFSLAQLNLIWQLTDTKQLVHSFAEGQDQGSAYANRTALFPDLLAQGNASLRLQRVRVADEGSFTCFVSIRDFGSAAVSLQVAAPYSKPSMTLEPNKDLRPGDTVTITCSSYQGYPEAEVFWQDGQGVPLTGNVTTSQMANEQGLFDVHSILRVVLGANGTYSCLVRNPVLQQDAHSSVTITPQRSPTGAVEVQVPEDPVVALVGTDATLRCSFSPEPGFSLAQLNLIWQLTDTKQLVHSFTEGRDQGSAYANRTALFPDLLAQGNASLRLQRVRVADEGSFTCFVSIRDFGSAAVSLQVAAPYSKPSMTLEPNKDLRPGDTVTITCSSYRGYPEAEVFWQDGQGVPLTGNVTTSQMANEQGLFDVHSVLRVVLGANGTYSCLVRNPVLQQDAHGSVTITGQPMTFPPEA
Text: (§1) The extracellular domains of the indicated B7 family proteins were purchased from R&D Systems. All proteins were validated by the vendor to be both pure and functional.

[3] = target: T2, Mouse 2Ig-B7-H3 extracellular domain (mouse, UniProt Q8VE98 29-248); assay: ratio of Kd values, told as the reason for using 100 ug/mL MIL33B-A594 on Pan02 cells
T2 construct: extracellular domain; Purchased recombinant extracellular domain; also called murine 2Ig-B7-H3
T2 sequence (looked up): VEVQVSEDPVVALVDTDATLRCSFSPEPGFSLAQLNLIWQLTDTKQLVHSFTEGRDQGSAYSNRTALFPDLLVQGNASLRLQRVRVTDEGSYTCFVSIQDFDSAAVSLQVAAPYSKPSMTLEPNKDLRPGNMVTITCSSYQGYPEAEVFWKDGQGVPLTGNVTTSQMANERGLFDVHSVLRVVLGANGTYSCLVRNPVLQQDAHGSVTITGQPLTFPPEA

[4] = target: T1, Human 4Ig-B7-H3 extracellular domain; assay: ELISA, extracellular domain plated on 96-well plates, MIL33B titrated, absorbance read
Text: The extracellular domains of human 4Ig-B7-H3 and murine 2Ig-B7-H3 were purchased and plated down onto 96-well plates. […] Plates were then washed and assessed for antibody binding through absorbance measurements.

[5] = target: T3, Human 2Ig-B7-H3 extracellular domain (human, UniProt Q5ZPR3 29-466); assay: biolayer interferometry (Octet), MIL33B captured on the probe, extracellular domain in solution
T3 chain: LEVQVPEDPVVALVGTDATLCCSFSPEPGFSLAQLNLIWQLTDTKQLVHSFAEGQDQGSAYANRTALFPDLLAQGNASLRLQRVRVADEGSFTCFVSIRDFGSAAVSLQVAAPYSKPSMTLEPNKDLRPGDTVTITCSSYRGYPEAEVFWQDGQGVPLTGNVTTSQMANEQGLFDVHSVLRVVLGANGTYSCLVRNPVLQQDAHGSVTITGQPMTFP
Experimental: (§2) Dissociation constants, Kd, were determined utilizing biolayer interferometry (Octet) assays. […] The surface is then placed into a solution of analyte and the phase shift indicating binding was measured over time. The probe was then moved into a solution without analyte and the time course of off-binding was measured. This cycle was repeated for multiple analyte concentrations, and the Kd was calculated from global curve fitting of the concentration- and time-dependence of the analyte binding to the antibody.
as §1

[6] = target: T1, Human 4Ig-B7-H3 extracellular domain; assay: as above
Experimental: as §2, §1

[7] = target: T2, Mouse 2Ig-B7-H3 extracellular domain; assay: as above
Experimental: as §2, §1

[8] = target: T4, Human 4Ig-B7-H3 expressed on cells (human, UniProt Q5ZPR3 29-534); assay: live cell immunofluorescence microscopy on 4T1 cells transduced with human 4Ig-B7-H3, labeled antibody at 1 µg/mL
T4 construct: whole, on cells; also called native 4Ig-B7-H3 on HeLa and HCT116 cells; human 4Ig-B7-H3 on transduced 4T1, B16F10 and L cells
T4 sequence (looked up): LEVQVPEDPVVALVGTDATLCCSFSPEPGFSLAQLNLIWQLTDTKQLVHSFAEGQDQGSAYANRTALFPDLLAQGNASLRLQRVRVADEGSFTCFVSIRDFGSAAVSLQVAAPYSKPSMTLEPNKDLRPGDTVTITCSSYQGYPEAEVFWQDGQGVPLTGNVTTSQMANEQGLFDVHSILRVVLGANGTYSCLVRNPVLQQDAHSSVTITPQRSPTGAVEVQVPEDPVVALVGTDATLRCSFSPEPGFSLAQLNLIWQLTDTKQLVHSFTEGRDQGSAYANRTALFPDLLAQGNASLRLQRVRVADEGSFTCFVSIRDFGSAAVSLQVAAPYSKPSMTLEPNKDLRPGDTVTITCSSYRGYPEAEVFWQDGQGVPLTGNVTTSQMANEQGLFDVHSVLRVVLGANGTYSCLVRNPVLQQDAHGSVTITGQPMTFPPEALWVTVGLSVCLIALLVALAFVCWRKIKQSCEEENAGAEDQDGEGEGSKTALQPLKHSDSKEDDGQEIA
Text: Murine breast tumor, 4T1 cells (ATCC), were stably transduced with human 4Ig-B7-H3 or empty vector using lentiviral constructs.
(§3) Cells were washed and imaged by fluorescence microscopy (TiE, Nikon).

[9] = target: T5, Murine 2Ig-B7-H3 expressed on cells (mouse, UniProt Q8VE98 29-316); assay: live cell immunofluorescence microscopy on Pan02 cells, MIL33B-A594 at 100 µg/mL; one panel blocked with unlabeled MIL33B
T5 construct: whole, on cells; also called murine B7-H3 expressed on tumor cells; 2Ig-B7-H3 on Pan02 and 4T1 cells
T5 sequence (looked up): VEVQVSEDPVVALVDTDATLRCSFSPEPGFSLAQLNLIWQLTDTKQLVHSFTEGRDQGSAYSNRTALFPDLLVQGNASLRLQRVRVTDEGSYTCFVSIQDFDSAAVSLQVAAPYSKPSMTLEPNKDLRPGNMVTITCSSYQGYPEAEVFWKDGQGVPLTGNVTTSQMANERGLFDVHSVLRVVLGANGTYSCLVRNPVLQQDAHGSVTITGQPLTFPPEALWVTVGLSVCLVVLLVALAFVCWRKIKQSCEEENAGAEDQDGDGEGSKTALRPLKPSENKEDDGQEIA
Text: as §3

[10] = target: T5, Murine 2Ig-B7-H3 expressed on cells; assay: PET imaging in mice with 4T1 or B16F10 tumors carrying the negative (empty) vector, with endogenous murine 2Ig-B7-H3 only, 24 and 72 hr after injection
Text: (§4) Immune competent mice bearing subcutaneous 4T1 tumors expressing human 4Ig-B7-H3 or negative vector (see Western blots in FIG. 3) were utilized. […] Similarly, B16F10 cells were transduced with human 4Ig-B7-H3 or empty vector. These cells have less endogenous murine 2Ig-B7H3 than 4T1 tumors.

[11] = target: T4, Human 4Ig-B7-H3 expressed on cells; assay: in vivo PET of 89Zr-DFO-labeled antibody in mice bearing 4T1 or B16F10 tumors with human 4Ig-B7-H3 or vector control, %ID/cc of tumor VOIs at 24 and 72 hr
Text: as §4

[12] = target: T1, Human 4Ig-B7-H3 extracellular domain; assay: ELISA

Sequence of TLR5 on HCT116 cells (O60602 21-858 limits assumed): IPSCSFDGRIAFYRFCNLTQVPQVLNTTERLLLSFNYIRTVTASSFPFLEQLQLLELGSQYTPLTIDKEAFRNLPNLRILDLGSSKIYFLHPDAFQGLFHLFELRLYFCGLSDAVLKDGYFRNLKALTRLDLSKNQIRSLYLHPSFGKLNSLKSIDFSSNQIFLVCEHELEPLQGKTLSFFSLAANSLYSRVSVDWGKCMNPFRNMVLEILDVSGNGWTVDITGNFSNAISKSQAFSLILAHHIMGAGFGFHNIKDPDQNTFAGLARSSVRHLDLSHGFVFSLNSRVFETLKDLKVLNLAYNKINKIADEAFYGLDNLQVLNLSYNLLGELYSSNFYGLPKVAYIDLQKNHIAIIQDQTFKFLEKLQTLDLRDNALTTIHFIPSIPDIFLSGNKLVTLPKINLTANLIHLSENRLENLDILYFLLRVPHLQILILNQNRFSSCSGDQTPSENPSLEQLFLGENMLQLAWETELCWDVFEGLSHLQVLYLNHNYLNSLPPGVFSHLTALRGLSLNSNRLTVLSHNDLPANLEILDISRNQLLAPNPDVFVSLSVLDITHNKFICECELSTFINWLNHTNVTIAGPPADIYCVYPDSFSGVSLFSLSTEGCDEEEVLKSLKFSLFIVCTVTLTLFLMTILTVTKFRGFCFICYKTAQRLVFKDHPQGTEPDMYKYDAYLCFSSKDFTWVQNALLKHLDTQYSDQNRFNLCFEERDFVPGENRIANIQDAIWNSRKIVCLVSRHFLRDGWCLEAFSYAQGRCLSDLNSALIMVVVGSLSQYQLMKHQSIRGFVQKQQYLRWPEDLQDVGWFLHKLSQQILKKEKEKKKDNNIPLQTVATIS

Molecule: Purified flagellin (ligand)
- activation of NF-kB (kB-RE5-IkBa-Fluc reporter in HCT116 cells) [1]: 1.8 nM

B1: MIL33B monoclonal antibody (antibody, IgG2a, V domains shown)
VH: EVQLQQSGPELVKPGASVKMSCKASGYTFTSYVMHWVRQSPGQGLEGIGYINSYSDGTKYNEKFKGKATLTSDKSSSTAYMELSGLTSEDSAVYYCARWGGLGNGAMDYWGQGTSVTVSS
VL: QIVLTQSPAIMSASPGEKVTMTCSVSSSVNYMHWYQQKSGTSPKRWIYDTSKLASGVPARFSASGSGTSYSLTISSMEAEDAATYYCQQWTSNPLTFGAGTKLELK
notes: Mouse hybridoma antibody from an NZBWF1/J mouse; constant regions are not; also called MIL33B mAb; MIL33B antibody
- fold better binding than to other B7 family members [2]: ≥ 1000 fold
- fold shift in Kd from human 4Ig-B7-H3 to murine 2Ig-B7-H3 [3]: ~100 fold
- EC50 (read off the curve) [4]: ~0.1 nM
- Kd [5]: 0.58 nM
- Kd [6]: 0.0723 nM
- Kd [7]: 41.1 nM

B2: MIL33B labeled with Alexa594 fluorophore (antibody, V domains shown)
VH: EVQLQQSGPELVKPGASVKMSCKASGYTFTSYVMHWVRQSPGQGLEGIGYINSYSDGTKYNEKFKGKATLTSDKSSSTAYMELSGLTSEDSAVYYCARWGGLGNGAMDYWGQGTSVTVSS
VL: QIVLTQSPAIMSASPGEKVTMTCSVSSSVNYMHWYQQKSGTSPKRWIYDTSKLASGVPARFSASGSGTSYSLTISSMEAEDAATYYCQQWTSNPLTFGAGTKLELK
modifications: Alexa594 fluorophore on the antibody, residues not stated
notes: also called MIL33B-A594; Alexa594-labeled MIL33B
- binding result [8]: binds
- binding result [9]: binds

B3: MIL33B conjugated with DFO and radiolabeled with 89Zr (antibody, mouse IgG2a, V domains shown)
VH: EVQLQQSGPELVKPGASVKMSCKASGYTFTSYVMHWVRQSPGQGLEGIGYINSYSDGTKYNEKFKGKATLTSDKSSSTAYMELSGLTSEDSAVYYCARWGGLGNGAMDYWGQGTSVTVSS
VL: QIVLTQSPAIMSASPGEKVTMTCSVSSSVNYMHWYQQKSGTSPKRWIYDTSKLASGVPARFSASGSGTSYSLTISSMEAEDAATYYCQQWTSNPLTFGAGTKLELK
modifications: DFO chelator with 89Zr on the antibody, residues not stated
notes: also called MIL33B-DFO; radiolabeled MIL33B antibody
- binding result [10]: binds
- binding result [11]: binds

B4: Flagellin-conjugated MIL33B (other)
VH: EVQLQQSGPELVKPGASVKMSCKASGYTFTSYVMHWVRQSPGQGLEGIGYINSYSDGTKYNEKFKGKATLTSDKSSSTAYMELSGLTSEDSAVYYCARWGGLGNGAMDYWGQGTSVTVSS
VL: QIVLTQSPAIMSASPGEKVTMTCSVSSSVNYMHWYQQKSGTSPKRWIYDTSKLASGVPARFSASGSGTSYSLTISSMEAEDAATYYCQQWTSNPLTFGAGTKLELK
modifications: MIL33B (mouse IgG2a) is chemically conjugated to purified flagellin through a commercial linker kit. Attachment sites and the number of flagellins per antibody are not stated, and the letters cannot carry them.
notes: Chemical conjugate of MIL33B (mouse IgG2a) and flagellin; also called MIL33B-flgn conjugate; MIL33B-flagellin conjugate; not shown: Flagellin (purified, InvivoGen)
- EC50 [12]: 36 nM

— US20230014398A1 (University of Texas, published 2023)
